Experiments:
Test in all cases: holdup assay
Parameters in all cases: key: below the threshold = too weak to quantify, mostly under pKd 3.1 to 4
Inadl_3, Q8NI35 = target: Inadl_3, Q8NI35
Inadl_2, Q8NI35 = target: Inadl_2, Q8NI35
GRID2IP_2, A4D2P6 = target: GRID2IP_2, A4D2P6
Inadl_8, Q8NI35 = target: Inadl_8, Q8NI35
ARHGEF11, O15085 = target: T1, ARHGEF11, O15085
T1 sequence (O15085 42-136, limits assumed, looked up): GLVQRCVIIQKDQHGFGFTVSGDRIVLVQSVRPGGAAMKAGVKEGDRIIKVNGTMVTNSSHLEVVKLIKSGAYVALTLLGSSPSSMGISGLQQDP

DFNB31_2, Q9P202 = target: T2, DFNB31_2, Q9P202
T2 sequence (Q9P202 274-371, limits assumed, looked up): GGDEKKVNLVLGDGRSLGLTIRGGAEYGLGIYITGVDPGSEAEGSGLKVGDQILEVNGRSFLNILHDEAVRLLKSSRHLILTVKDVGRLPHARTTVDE

PDZD2_2, O15018 = target: T3, PDZD2_2, O15018
T3 sequence (O15018 329-429, limits assumed, looked up): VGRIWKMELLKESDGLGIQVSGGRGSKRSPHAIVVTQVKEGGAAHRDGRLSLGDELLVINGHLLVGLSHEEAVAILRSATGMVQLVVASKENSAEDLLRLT

GORASP1, Q9BQQ3 = target: GORASP1, Q9BQQ3
GRIP1_2, Q9Y3R0 = target: T4, GRIP1_2, Q9Y3R0
T4 sequence (Q9Y3R0 145-248, limits assumed, looked up): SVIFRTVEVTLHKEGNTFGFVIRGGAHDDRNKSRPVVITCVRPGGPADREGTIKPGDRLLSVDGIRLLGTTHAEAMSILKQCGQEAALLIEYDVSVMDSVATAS

PCLO, Q9Y6V0 = target: T5, PCLO, Q9Y6V0
T5 sequence (Q9Y6V0 4491-4600, limits assumed, looked up): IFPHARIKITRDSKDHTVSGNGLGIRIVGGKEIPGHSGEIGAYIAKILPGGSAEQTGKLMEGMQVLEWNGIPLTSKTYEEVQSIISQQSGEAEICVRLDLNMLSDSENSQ

GRIP2_6, Q9C0E4 = target: GRIP2_6, Q9C0E4
RAPGEF6, Q8TEU7 = target: T6, RAPGEF6, Q8TEU7
T6 sequence (Q8TEU7 525-625, limits assumed, looked up): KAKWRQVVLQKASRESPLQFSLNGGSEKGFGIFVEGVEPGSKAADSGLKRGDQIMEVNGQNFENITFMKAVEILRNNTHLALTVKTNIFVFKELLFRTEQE

Inadl_6, Q8NI35 = target: Inadl_6, Q8NI35
PDZRN4_1, Q6ZMN7 = target: PDZRN4_1, Q6ZMN7
SNX27, Q96L92 = target: SNX27, Q96L92
LIMK2, P53671 = target: LIMK2, P53671
Inadl_10, Q8NI35 = target: Inadl_10, Q8NI35
GRIP2_7, Q9C0E4 = target: GRIP2_7, Q9C0E4
MAGI1_2, Q96QZ7 = target: MAGI1_2, Q96QZ7
MAGI2_5, Q86UL8 = target: MAGI2_5, Q86UL8
GRIP1_5, Q9Y3R0 = target: T7, GRIP1_5, Q9Y3R0
T7 sequence (Q9Y3R0 568-668, limits assumed, looked up): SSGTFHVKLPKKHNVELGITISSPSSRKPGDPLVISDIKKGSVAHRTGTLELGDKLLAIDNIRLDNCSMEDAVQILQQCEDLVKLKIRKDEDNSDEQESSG

MPP6, Q9NZW5 = target: T8, MPP6, Q9NZW5
T8 sequence (Q9NZW5 125-219, limits assumed, looked up): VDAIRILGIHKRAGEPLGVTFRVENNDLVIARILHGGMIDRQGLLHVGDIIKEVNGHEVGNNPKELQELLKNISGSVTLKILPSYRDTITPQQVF

AHNAK1, Q09666 = target: AHNAK1, Q09666
TJP2_1, Q9UDY2 = target: TJP2_1, Q9UDY2
GRIP1_3, Q9Y3R0 = target: T9, GRIP1_3, Q9Y3R0
T9 sequence (Q9Y3R0 247-346, limits assumed, looked up): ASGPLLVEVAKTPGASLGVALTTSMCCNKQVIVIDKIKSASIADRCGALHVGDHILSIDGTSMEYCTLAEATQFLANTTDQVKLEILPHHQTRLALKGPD

GIPC2, Q8TF65 = target: GIPC2, Q8TF65
MAST2, Q6P0Q8 = target: MAST2, Q6P0Q8
GRIP1_7, Q9Y3R0 = target: T10, GRIP1_7, Q9Y3R0
T10 sequence (Q9Y3R0 999-1096, limits assumed, looked up): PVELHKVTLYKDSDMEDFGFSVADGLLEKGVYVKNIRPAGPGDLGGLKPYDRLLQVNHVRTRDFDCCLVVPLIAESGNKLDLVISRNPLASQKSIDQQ

[1] = plain residues with an end cap or a label only (N-terminal biotin on a linker: ado-ado)
[2] = plain residues with an end cap or a label only (N-terminal biotin on a linker: (peg)3)

Measured: pKd

GRIP2_6, Q9C0E4, sequence (Q9C0E4 648-740): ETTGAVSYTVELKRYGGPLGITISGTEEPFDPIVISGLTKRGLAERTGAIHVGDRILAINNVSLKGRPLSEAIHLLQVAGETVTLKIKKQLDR
Inadl_8, Q8NI35, sequence (Q8NI35 1425-1530): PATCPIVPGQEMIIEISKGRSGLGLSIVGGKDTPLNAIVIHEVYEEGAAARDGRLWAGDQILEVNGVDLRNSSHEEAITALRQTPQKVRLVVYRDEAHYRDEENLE
GRID2IP_2, A4D2P6, sequence (A4D2P6 272-370): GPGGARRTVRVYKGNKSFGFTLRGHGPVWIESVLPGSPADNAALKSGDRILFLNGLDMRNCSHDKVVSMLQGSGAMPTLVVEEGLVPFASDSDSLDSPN
GRIP2_7, Q9C0E4, sequence (Q9C0E4 934-1023): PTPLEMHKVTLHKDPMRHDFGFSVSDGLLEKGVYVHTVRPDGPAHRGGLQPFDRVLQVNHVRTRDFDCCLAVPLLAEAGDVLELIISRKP
MAGI2_5, Q86UL8, sequence (Q86UL8 915-1017): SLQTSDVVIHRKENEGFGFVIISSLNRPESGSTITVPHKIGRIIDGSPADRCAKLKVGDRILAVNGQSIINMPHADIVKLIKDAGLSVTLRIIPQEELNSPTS
MAGI1_2, Q96QZ7, sequence (Q96QZ7 456-580): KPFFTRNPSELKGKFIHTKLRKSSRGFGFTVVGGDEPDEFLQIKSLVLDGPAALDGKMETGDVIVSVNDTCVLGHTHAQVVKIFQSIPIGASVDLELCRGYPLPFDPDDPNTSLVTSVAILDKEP
Inadl_3, Q8NI35, sequence (Q8NI35 359-469): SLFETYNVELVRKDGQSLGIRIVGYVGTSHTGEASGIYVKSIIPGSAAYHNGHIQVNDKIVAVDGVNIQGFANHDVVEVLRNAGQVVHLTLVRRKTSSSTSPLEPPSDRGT
LIMK2, P53671, sequence (P53671 143-248): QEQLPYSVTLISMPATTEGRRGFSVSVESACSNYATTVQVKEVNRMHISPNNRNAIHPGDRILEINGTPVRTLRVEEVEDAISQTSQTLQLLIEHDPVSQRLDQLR
AHNAK1, Q09666, sequence (Q09666 4-100): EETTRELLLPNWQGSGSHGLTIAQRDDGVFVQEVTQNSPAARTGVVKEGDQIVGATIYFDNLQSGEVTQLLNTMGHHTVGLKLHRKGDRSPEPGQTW
Inadl_2, Q8NI35, sequence (Q8NI35 238-335): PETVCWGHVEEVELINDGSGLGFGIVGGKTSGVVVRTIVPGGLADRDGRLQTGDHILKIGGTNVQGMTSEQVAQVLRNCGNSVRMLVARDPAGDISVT
GORASP1, Q9BQQ3, sequence (Q9BQQ3 1-208): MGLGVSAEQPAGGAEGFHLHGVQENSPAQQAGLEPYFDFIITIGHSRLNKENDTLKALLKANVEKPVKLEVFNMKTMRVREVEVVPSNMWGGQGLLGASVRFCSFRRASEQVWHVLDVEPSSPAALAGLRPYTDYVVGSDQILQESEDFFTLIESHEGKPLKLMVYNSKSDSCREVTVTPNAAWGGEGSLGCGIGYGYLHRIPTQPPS
PDZRN4_1, Q6ZMN7, sequence (Q6ZMN7 213-318): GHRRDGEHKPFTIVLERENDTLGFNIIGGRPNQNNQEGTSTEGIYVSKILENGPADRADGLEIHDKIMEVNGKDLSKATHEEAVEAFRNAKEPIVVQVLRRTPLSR
TJP2_1, Q9UDY2, sequence (Q9UDY2 24-128): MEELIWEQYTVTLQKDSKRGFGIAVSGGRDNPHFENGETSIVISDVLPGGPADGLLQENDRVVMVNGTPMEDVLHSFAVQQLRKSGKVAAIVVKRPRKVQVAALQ
MAST2, Q6P0Q8, sequence (Q6P0Q8 1099-1202): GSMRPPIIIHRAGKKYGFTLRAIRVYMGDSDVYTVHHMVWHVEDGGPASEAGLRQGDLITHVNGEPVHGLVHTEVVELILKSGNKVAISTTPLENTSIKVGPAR
Inadl_6, Q8NI35, sequence (Q8NI35 1058-1167): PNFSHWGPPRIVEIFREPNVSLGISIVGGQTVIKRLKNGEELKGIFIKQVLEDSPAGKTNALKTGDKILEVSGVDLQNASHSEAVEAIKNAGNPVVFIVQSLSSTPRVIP
Inadl_10, Q8NI35, sequence (Q8NI35 1673-1763): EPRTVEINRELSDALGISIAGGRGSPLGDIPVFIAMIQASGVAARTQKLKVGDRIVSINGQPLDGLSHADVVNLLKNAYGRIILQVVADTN
GIPC2, Q8TF65, sequence (Q8TF65 112-203): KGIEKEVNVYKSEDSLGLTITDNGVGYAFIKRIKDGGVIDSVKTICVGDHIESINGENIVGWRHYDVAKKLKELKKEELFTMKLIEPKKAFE

SRPTKGPTLL [PLEKHH2, Q8IVE3]
4.48: GRID2IP_2, A4D2P6; [1]
3.57: TJP2_1, Q9UDY2; [1]
3.78: GORASP1, Q9BQQ3; [1]
3.85: ARHGEF11, O15085; [1]
below the threshold: Inadl_3, Q8NI35; [1] | Inadl_2, Q8NI35; [1] | DFNB31_2, Q9P202; [1] | GRIP1_2, Q9Y3R0; [1] | PCLO, Q9Y6V0; [1] | GRIP2_6, Q9C0E4; [1] | RAPGEF6, Q8TEU7; [1] | Inadl_6, Q8NI35; [1] | PDZRN4_1, Q6ZMN7; [1] | LIMK2, P53671; [1] | Inadl_10, Q8NI35; [1] | GRIP2_7, Q9C0E4; [1] | MAGI2_5, Q86UL8; [1] | GRIP1_5, Q9Y3R0; [1] | MPP6, Q9NZW5; [1] | AHNAK1, Q09666; [1] | GRIP1_3, Q9Y3R0; [1] | GIPC2, Q8TF65; [1] | GRIP1_7, Q9Y3R0; [1]
3.76: SNX27, Q96L92; [1]
3.61: Inadl_8, Q8NI35; [1]
5.06: MAST2, Q6P0Q8; [1]
4.25: MAGI1_2, Q96QZ7; [1]
3.87: PDZD2_2, O15018; [1]

LTAQEQPVYI [APBA1, Q02410]
3.78: GRIP2_7, Q9C0E4; [1]
4.36: PDZD2_2, O15018; [1]
4.21: ARHGEF11, O15085; [1]
below the threshold: Inadl_3, Q8NI35; [1] | Inadl_8, Q8NI35; [1] | DFNB31_2, Q9P202; [1] | GRIP1_2, Q9Y3R0; [1] | PCLO, Q9Y6V0; [1] | GRIP2_6, Q9C0E4; [1] | RAPGEF6, Q8TEU7; [1] | Inadl_6, Q8NI35; [1] | PDZRN4_1, Q6ZMN7; [1] | SNX27, Q96L92; [1] | LIMK2, P53671; [1] | Inadl_10, Q8NI35; [1] | MAGI1_2, Q96QZ7; [1] | MAGI2_5, Q86UL8; [1] | GRIP1_5, Q9Y3R0; [1] | MPP6, Q9NZW5; [1] | AHNAK1, Q09666; [1] | TJP2_1, Q9UDY2; [1] | GRIP1_3, Q9Y3R0; [1] | GIPC2, Q8TF65; [1] | MAST2, Q6P0Q8; [1] | GRIP1_7, Q9Y3R0; [1]
3.81: GRID2IP_2, A4D2P6; [1]
3.87: GORASP1, Q9BQQ3; [1]
3.72: Inadl_2, Q8NI35; [1]

RTQSSDSAYV [GJD2, Q9UKL4]
4.21: ARHGEF11, O15085; [1]
3.67: GORASP1, Q9BQQ3; [1]
3.7: Inadl_8, Q8NI35; [1]
4.17: MAST2, Q6P0Q8; [1]
4.09: TJP2_1, Q9UDY2; [1]
4.13: SNX27, Q96L92; [1]
below the threshold: Inadl_3, Q8NI35; [1] | Inadl_2, Q8NI35; [1] | GRID2IP_2, A4D2P6; [1] | DFNB31_2, Q9P202; [1] | GRIP1_2, Q9Y3R0; [1] | PCLO, Q9Y6V0; [1] | GRIP2_6, Q9C0E4; [1] | RAPGEF6, Q8TEU7; [1] | Inadl_6, Q8NI35; [1] | PDZRN4_1, Q6ZMN7; [1] | LIMK2, P53671; [1] | Inadl_10, Q8NI35; [1] | GRIP2_7, Q9C0E4; [1] | MAGI1_2, Q96QZ7; [1] | MAGI2_5, Q86UL8; [1] | GRIP1_5, Q9Y3R0; [1] | MPP6, Q9NZW5; [1] | AHNAK1, Q09666; [1] | GRIP1_3, Q9Y3R0; [1] | GIPC2, Q8TF65; [1] | GRIP1_7, Q9Y3R0; [1]
5.15: PDZD2_2, O15018; [1]

YDEPTTTTSVPL [SARS-Cov2-3a, P0DTC3]
below the threshold: Inadl_3, Q8NI35; [2] | Inadl_2, Q8NI35; [2] | GRID2IP_2, A4D2P6; [2] | Inadl_8, Q8NI35; [2] | ARHGEF11, O15085; [2] | DFNB31_2, Q9P202; [2] | PDZD2_2, O15018; [2] | GORASP1, Q9BQQ3; [2] | GRIP1_2, Q9Y3R0; [2] | PCLO, Q9Y6V0; [2] | GRIP2_6, Q9C0E4; [2] | RAPGEF6, Q8TEU7; [2] | Inadl_6, Q8NI35; [2] | PDZRN4_1, Q6ZMN7; [2] | SNX27, Q96L92; [2] | LIMK2, P53671; [2] | Inadl_10, Q8NI35; [2] | GRIP2_7, Q9C0E4; [2] | MAGI1_2, Q96QZ7; [2] | MAGI2_5, Q86UL8; [2] | GRIP1_5, Q9Y3R0; [2] | MPP6, Q9NZW5; [2] | TJP2_1, Q9UDY2; [2] | GRIP1_3, Q9Y3R0; [2] | GIPC2, Q8TF65; [2] | MAST2, Q6P0Q8; [2] | GRIP1_7, Q9Y3R0; [2]
3.77: AHNAK1, Q09666; [2]

RPGFASESKV [ADRB1, P08588]
below the threshold: Inadl_3, Q8NI35; [1] | Inadl_2, Q8NI35; [1] | GRID2IP_2, A4D2P6; [1] | DFNB31_2, Q9P202; [1] | GORASP1, Q9BQQ3; [1] | GRIP1_2, Q9Y3R0; [1] | PCLO, Q9Y6V0; [1] | GRIP2_6, Q9C0E4; [1] | RAPGEF6, Q8TEU7; [1] | Inadl_6, Q8NI35; [1] | LIMK2, P53671; [1] | Inadl_10, Q8NI35; [1] | GRIP2_7, Q9C0E4; [1] | MAGI2_5, Q86UL8; [1] | GRIP1_5, Q9Y3R0; [1] | MPP6, Q9NZW5; [1] | AHNAK1, Q09666; [1] | TJP2_1, Q9UDY2; [1] | GRIP1_3, Q9Y3R0; [1] | GIPC2, Q8TF65; [1] | GRIP1_7, Q9Y3R0; [1]
4.2: PDZD2_2, O15018; [1]
3.73: Inadl_8, Q8NI35; [1]
3.88: MAGI1_2, Q96QZ7; [1]
4.84: SNX27, Q96L92; [1]
3.69: PDZRN4_1, Q6ZMN7; [1]
5.01: MAST2, Q6P0Q8; [1]
4.05: ARHGEF11, O15085; [1]

Reference: article PMC9482650, “Quantitative fragmentomics allow affinity mapping of interactomes” (Nature Communications, 2022)
